Assay [1] deals with Human insulin (Actrapid) (human). Kind of assay: SPR (Biacore 3000), insulin 0.25-10 µM over C-terminally immobilized insulin; global fit, analyte with two sites competing for one site on the chip; rapid off rate. For orientation: Surface plasmon resonance follows binding to a sensor surface in real time, without labels.
The target is the same in assay [2]. Kind of assay: SPR (Biacore 3000), insulin 0.25-10 µM over C-terminally immobilized insulin; global fit, analyte with two sites competing for one site on the chip; slow off rate.

For “Human insulin (Actrapid) (ligand; other documents disagree on this pair)”, the Kd (as a rule, the free concentration of one partner at which half of the binding sites on the other are occupied at equilibrium, for simple one-to-one binding) is 4.65 µM in assay [1] and 2710 nM in assay [2].
